Patent US10279036B2, “Antibody-albumin nanoparticle complexes comprising albumin, bevacizumab, and paclitaxel, and methods of making and using the same” (Mayo Foundation for Medical Education and Research, priority 2012, dated 2019)
Like-named read-outs stand apart in the source and are kept apart here.

Tests used:
ABRAXANE® nanoparticles = target: T1, ABRAXANE® nanoparticles (Homo sapiens, UniProt P02768); experiment: Complex formation of labeled therapeutic antibodies with labeled ABRAXANE nanoparticles (flow cytometry); assay type: binding; details: fluorescently labeled, FIG. 14
T1 construct: purchased Celgene Corp
Text: The particles were spun down, washed, and visualized by flow cytometry.

[1] = tested on: A375 melanoma tumor cells; experiment: A375 proliferation assay (DNA synthesis, EdU); assay type: cell-based, human; details: 100 μg/mL, overnight
Description: After the overnight incubation, cell proliferation was determined by measuring the level of DNA synthesis.
After an overnight incubation, proliferation of the cells was measured by determining the level of DNA synthesis.
Proliferation of A375 melanoma tumor cells in vitro following exposure to various treatments was assessed. […] With reference to FIG. 33, the complexes were made with an ABRAXANE®: AVASTIN® at a 2.5 to 1 ratio. […] The nanoparticles were resuspended in 0.9% saline and added to the wells containing 50,000 A375 cells. The cells were incubated overnight at 37° C. The cells were stained with a thymidine analog, EdU, which incorporates into the DNA as cells proliferate. Cells that are actively proliferating stain positive. The proliferation index was calculated as the % positive cells in treated cells/% positive cells in untreated cells.
After the overnight incubation, the A375 cells were harvested, permeabolized and intracellularly stained with a FITC conjugated anti-EdU antibody. Cell proliferation was determined by DNA synthesis as a percentage of cells, which were FITC positive on a Guava 8HT flow cytometer (Millipore Billerica, Mass.). […] The proliferation index was calculated by dividing the percentage of proliferating cells in treated wells (FITC positive) by the percentage of cells proliferating in the untreated well.

[2] = tested on: A375 human melanoma tumor cells; experiment: A375 xenograft, ABRAXANE/AVASTIN/cisplatin complexes; details: treated once intravenously
Description: Athymic nude mice were injected with 1×10^6 A375 human melanoma tumor cells. […] Following incubation, the complexes were diluted for mouse injection. Mice were treated once, and tumor growth was monitored for at least 80 days for all mice.

human serum albumin = target: T2, human serum albumin (Homo sapiens, UniProt P02768); experiment: Association and dissociation of AVASTIN with human serum albumin (streptavidin sensor); assay type: binding; details: read-out: dissociation constant
T2 construct: purchased
Description: (§1) The association and dissociation of AVASTIN® with human serum albumin and ABRAXANE® were determined. In this experiment, biotinylated AVASTIN® was bound to a streptavidin sensor. After AVASTIN® loading to the sensor, the sensor was exposed to either 1 mg/mL of human serum albumin or 1 mg/mL of ABRAXANE®. […] The dissociation constants were calculated to be 6.2×10^−6 and 5.873×10^−7 for human serum albumin and ABRAXANE®, respectively.
(§2) The association and dissociation of albumin with AVASTIN® and AVASTIN® with ABRAXANE® were determined. In this experiment, biotinylated AVASTIN® or biotinylated Albumin® was bound to a streptavidin sensor. After albumin or AVASTIN® loading to the sensor, the sensor was exposed to 1 mg/mL of AVASTIN® or 1 mg/mL of ABRAXANE®, respectively. […] The dissociation constant calculated for albumin and AVASTIN® was 6.588×10^−10. The dissociation constant calculated for AVASTIN® and ABRAXANE® in this experiment was 1.698×10^−5.

ABRAXANE® = target: T3, ABRAXANE® (Homo sapiens, UniProt P02768); experiment: Association and dissociation of AVASTIN (or IgG) with ABRAXANE (streptavidin sensor); assay type: binding; details: biotinylated AVASTIN on streptavidin sensor, 1 mg/mL ABRAXANE, read-out: dissociation constant
T3 construct: purchased Celgene Corp
Description: as §1, §2
The following was performed to assess protein binding due to deglycosylation of bevacizumab compared to naturally occurring IgG. In order to determine if bevacizumab binding to ABRAXANE® is due to the deglycosylation of the Fe chain of the antibody, the binding kinetics of bevacizumab were compare to naturally produced IgG isolated from human plasma.

[3] = Bevacizumab binding of free paclitaxel (Western blot); details: 4 mg bevacizumab with 0.1-2 mg paclitaxel, 30 minutes room temperature
Description: The following was performed to determine if bevacizumab binds free paclitaxel. 4 mg of bevacizumab was incubated with paclitaxel (0.1, 0.5, 1, or 2 mg) for 30 minutes at room temperature.

| Compound | complex formation with ABRAXANE nanoparticles (ABRAXANE® nanoparticles) | cells killed [1] | median survival [2] | Kd (human serum albumin; biotinylated AVASTIN on streptavidin sensor, 1 mg/mL human serum albumin) | Kd (human serum albumin; biotinylated albumin on streptavidin sensor, 1 mg/mL AVASTIN) | Kd (ABRAXANE®; first experiment, listed as bevacizumab) | Kd (ABRAXANE®; first experiment) | Kd (ABRAXANE®; second experiment) | binding of free paclitaxel [3] |
| --- | --- | --- | --- | --- | --- | --- | --- | --- | --- |
| rituxan: therapeutic monoclonal antibody | spontaneously formed complexes with ABRAXANE® nanoparticles | – | – | – | – | – | – | – | – |
| N.N.[Cl][Pt][Cl] [cisplatin, cisdiamminedichloroplatinum (II)] | – | 100% | 9 days | – | – | – | – | – | – |
| AVASTIN®: humanized monoclonal antibody that binds to vascular endothelial growth factor A | spontaneously formed complexes with ABRAXANE® nanoparticles | – | – | 6200 nM | 0.659 nM | 580 nM | 587 nM | 17000 nM | did not bind free paclitaxel |
